The target of assay [1] is T1, S114A human B7-H4 (full-length membrane construct, glycosylation site N112-S114 removed) (human, UniProt Q7Z7D3 29-282).
T1 construct: Transiently transfected into 293 cells; also called mutated S114A human B7-H4
T1 sequence: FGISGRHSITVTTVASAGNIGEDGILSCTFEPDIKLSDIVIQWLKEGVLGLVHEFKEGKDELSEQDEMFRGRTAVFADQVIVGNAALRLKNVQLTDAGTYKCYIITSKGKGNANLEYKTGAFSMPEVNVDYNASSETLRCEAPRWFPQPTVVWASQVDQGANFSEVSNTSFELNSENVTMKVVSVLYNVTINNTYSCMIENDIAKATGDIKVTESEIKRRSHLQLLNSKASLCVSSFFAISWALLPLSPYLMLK
As to the kind of experiment: FACS on 293 cells transfected with S114A human B7-H4, against isotype control. The source says:
The B7-H4 (Ig-V) domain contains a single N-linked glycosylation site (N112-S114), and to determine whether glycosylation influences binding of the antibodies to B7-H4, S114 was substituted with alanine using standard site-specific mutagenesis to prevent glycosylation in the full-length human B7-H4 membrane construct.

Assay [2] deals with T2, irrelevant (Ig-V)-B7-H4 (Ig-C; D158-G236 including TM/CD D237-K282) chimeric membrane protein (construct-88B) (human, UniProt Q7Z7D3 158-282).
T2 construct: Transiently expressed on 293 cells; also called B7-H4 Ig-C domain; not shown: irrelevant Ig-V domain; an N-terminal or cytoplasmic tag was attached but is not described
T2 sequence: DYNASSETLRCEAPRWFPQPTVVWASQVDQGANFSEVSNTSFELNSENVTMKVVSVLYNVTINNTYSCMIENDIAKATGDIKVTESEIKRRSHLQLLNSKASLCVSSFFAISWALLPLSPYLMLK
As to the kind of experiment: FACS on 293 cells transiently transfected with construct-88B, dye-labeled antibody. The source says:
To determine whether the B7-H4 antibodies bind to either the Ig-V or Ig-C domain of B7-H4, chimeric Ig domain molecules were engineered that contain either a B7-H4 (IgV; G28-F150 including spacer S151-V157)—irrelevant (Ig-C) (construct-88) or an irrelevant (Ig-V)-B7-H4 (Ig-C; D158-G236 including TM/CD D237-K282) (construct-88B) membrane protein using standard molecular cloning methods. N-terminal or cytoplasmic tags were attached to confirm that 293 cells transfected with these constructs express protein on the cell membrane (data not shown). Briefly, 293 cells were transiently transfected with constructs 88 & 88B using polyfect. After 48 hours, the cells were stained with 10 μg/ml of Dylight-488 or −650 labeled ch9B9, ch1D11, ch22C10 or ch32D6 for 30-40 minutes at 4° C., washed and analyzed on a BD FACS calibur.

B1: chimeric antibody ch9B9 (antibody, V domains shown)
VH: QVQLQQSGAELMKPGASVKMSCKATGYTFSSYWIEWVKQRPGHGLEWIGEILPGTSITTYNAKFKVKATFTADTSSNTAYMQLSSLTSEDSAVYFCARYYFGSSSFYFDYWGQGTSLTVSS
VL: QAVVTQESALTTSPGDTVTLTCRSSTGAVTTSNYANWVQEKPDHLFTGLIGGTNNRVPGVPARFSGSLIGDKAALTITGAQTEDEAMYFCALWYNNHWVFGGGTKLE
Turning to B1, in assay [1], the “fold binding over isotype control” value is 100 fold. In assay [2], the binding result is listed as “no binding (tested: 10 µg/ml)”.

B2: chimeric antibody ch22C10 (antibody, V domains shown)
VH: QVQLQQPGAELVKPGTSVKLSCKASGYTFTNFWIHWVIQRPGQGLEWIGEIDPSDSYTNYNQKFKGKATLTVDKSSNTAYMQLSSLTSEDSAVYYCSREITTVDYWGQGTTLTVSS
VL: QIVLTQSPTIMSASPGEKVTLTCSATSSISYMHWYQQKPGTSPKGWIYDTSKLAHGVPARFSGSGSGTSYSLTISSMEAEDAATYYCHQRRSYPFTFGSGTKLEIK
notes: also called ch2210; parental 22C10 antibody
For B2, the “fold binding over isotype control” value in assay [1] was found to be 100 fold. Moreover, the binding result in assay [2] is listed as “no binding (tested: 10 µg/ml)”.

B3: ch1D11, slightly modified version with light chain C43G (antibody, human IgG1, V domains shown)
VH: QVQLQQSGAELVRPGTSVKMSCKASGYTFTSYWIGWAKQRPGHGFEWIGDIYPGGGYTNYNEKFKGKATLTADKSSSTAYMQFSSLTSEDSAIYYCARLDGSSYRGAMDSWGQGTSITVSS
VL: DIQMTQSPSSLSASLGGKVTITCKASQGFNKYVAWYQHKPGQGPRLLIHYTSTLQPGIPARFSGSGSGRDYSFSISNLEPEDSATYFCLQYGNLLYAFGGGTKLEIKR
notes: Human IgG1 / kappa chimeric; also called ch1D11 (C43G light chain)
For B3, the “fold binding over isotype control” value in assay [1] amounted to 100 fold. Also, the binding result in assay [2] was “no binding (tested: 10 µg/ml)”.

B4: chimeric antibody ch32D6 (antibody, V domains shown)
VH: EVQLQQSGPDLVKPGASVKISCKASGYSFTGYYIHWMKQSHGKSLEWIGRVNPNNGDPIYNQKFRGKAILTVDQSSNTAYMELRSLTSEASAVYYCARVLFYYGSPFAYWGQGTLVTVSA
VL: DIVMTQSPSSLIVTAGEKVTMSCRSSQSLFDSGSQRNYLTWFHQKPGRPPKLLIYWASTRESGVPDRFTGSGSGTDFTLTISSVQTEDLAVYFCQNDYSFPFTFGSGTKLEEK
Turning to B4, in assay [1], the “fold binding over isotype control” value came to 100 fold. Also, the binding result in assay [2] is on record as “no binding (tested: 10 µg/ml)”.

The values are drawn from patent US20190241663A1 (Genentech, published 2019).
